Numbering of substitutions follows the chain as printed.

These results are taken from patent US20210395344A1 (TWIST BIOSCIENCE, published 2021).

To fix the notation:
B1: SARS-CoV-2 variant 1-38 (antibody, V domains shown)
VH: EVQLLESGGGLVQPGGSLRLSCAASGITFSSYAMSWVRQAPGKGLEWVSGISGSGGSTYYADSVKGRFTISRDNSKNTLYLQMNSLRAEDTAVYYCAKHGSGTIFGVVIAKYYFDYWGQGTLVTVSS
VL: QSALTQPASVSGSPGQSITISCTGTSSDIGSYNLVSWYQQHPGKAPKLMIYEGTKRPSGVSNRFSGSKSGNTASLTISGLQAEDEADYYCCSYAGSRTYVFGGGTKLTVL
B2: SARS-CoV-2 variant 1-17 (antibody, V domains shown)
VH: EVQLLESGGGLVQPGGSLRLSCAASGFTFSSYAMYWVRQAPGKGLEWVSAISGSAGSTYYADSVKGRFTISRDNSKNTLYLQMNSLRAEDTAVYYCARDTNDFWSGYSIFDPWGQGTLVTVSS
VL: B1 VL
B3: SARS-CoV-2 variant 1-37 (antibody, V domains shown)
VH: EVQLLESGGGLVQPGGSLRLSCAASGFTFTSYAMNWVRQAPGKGLEWVTAISGSGGSTFYADSVKGRFTISRDNSKNTLYLQMNSLRAEDTAVYYCTRPPYGDYGDYWGQGTLVTVSS
VL: B1 VL
B4: SARS-CoV-2 variant 1-23 (antibody, V domains shown)
VH: EVQLLESGGGLVQPGGSLRLSCAASGFTFSSYAISWVRQAPGKGLEWVSIISGSGGSTYYADSVKGRFTISRDNSKNTLYLQMNSLRAEDTAVYYCAREGYRDYLWYFDLWGQGTLVTVSS
VL: QSALTQPASVSGSPGQSITISCTGTSNDVGSYNLVSWYQQHPGKAPKLMIYEGNKRPSGVSNRFSGSKSGNTASLTISGLQAEDEADYYCCSYAGSYTVFGGGTKLTVL
B5: SARS-CoV-2 variant 1-21 (antibody, V domains shown)
VH: B4 VH with A33T, I34M
VL: QSALTQPASVSGSPGQSITISCTGTSSDVGSNNLVSWYQQHPGKAPKLMIYEGNKRPSGVSNRFSGSKSGNTASLTISGLQAEDEADYYCCSYAGSVVFGGGTKLTVL
B6: SARS-CoV-2 variant 1-26 (antibody, V domains shown)
VH: EVQLLESGGGLVQPGGSLRLSCAASGFTFSSYAISWVRQAPGKGLEWVSAISGSGYSTYYADSVKGRFTISRDNSKNTLYLQMNSLRAEDTAVYYCARGAPDSSGYYFQGEVYFDYWGQGTLVTVSS
VL: QSALTQPASVSGSPGQSITISCTGTSSDVGGYNLVSWYQQHPGKAPKLMIYEGTKRPSGVSNRFSGSKSGNTASLTISGLQAEDEADYYCCSFVRSSAHVVFGGGTKLTVL
B7: SARS-CoV-2 variant 1-47 (antibody, V domains shown)
VH: EVQLLESGGGLVQPGGSLRLSCAASGFTFSSQAMSWVRQAPGKGLEWVSAISGSGGGTYYADSVKGRFTISRDNSKNTLYLQMNSLRAEDTAVYYCAKDRRFGEFDPWGQGTLVTVSS
VL: B6 VL with D28G, G31S, T54I, F93Y, V94A, R95G, A98S, H99F
B8: SARS-CoV-2 variant 2-15 (antibody, V domains shown)
VH: EVQLLESGGGLVQPGGSLRLSCAASGFTFSDFAMAWVRQAPGKGLEWVSAISGSGDITYYADSVKGRFTISRDNSKNTLYLQMNSLRAEDTAVYYCAREADGLHSPWHFDLWGQGTLVTVSS
VL: DIQMTQSPSSLSASVGDRVTITCRASQSIDNYLNWYQQKPGKAPKLLIYGVSALQSGVPSRFSGSGSGTDFTLTISSLQPEDFATYYCQQSHSAPLTFGQGTKVEIK

For the first experiment, the target named is T1, SARS-CoV-2 S1 (subunit 1) protein (SARS-CoV-2, UniProt P0DTC2 16-685).
T1 construct: also called biotinylated SARS-CoV-2 S1
The experiment can be described thus: phage ELISA.
Consider B1, for which the “screening ELISA (Avg), fold over background” value (“screening ELISA (Avg), fold” below) turned out to be 20.2 fold over background.
Take B2: the “screening ELISA (Avg), fold” value turned out to be 27.4 fold over background.
The same measure, in the same setting: in the case of B3 it was 27 fold over background; in that of B4, 23.1 fold over background.
Same read-out and setting: in the case of B5 it was 47.6 fold over background.
Take B6: the “screening ELISA (Avg), fold” value stood at 19.5 fold over background.
On the same count and under the same terms, in the case of B7 it was 22.6 fold over background.

Another experiment concerns the target COVID S1 RBD Fc fusion (Antigen 1) (SARS-CoV-2, UniProt P0DTC2 319-541). In words: phage ELISA. A general note: An ELISA detects its analyte on a solid surface through an enzyme-linked reagent.
In the case of B8, the “specificity ELISA, fold over background” value was found to be 28.1 fold over background and the “specificity ELISA, percent binding relative to Acro S1” value was 90.6%.

Another experiment deals with T2, COVID S1 RBM Fc fusion (Antigen 2) (SARS-CoV-2, UniProt P0DTC2 437-508).
T2 construct: domain: RBM
In words: phage ELISA.
B1: the “specificity ELISA, fold over background” value was found to be 1.2 fold over background and the “specificity ELISA, percent binding relative to Acro S1” value amounted to 101%.
Turning to B2, the “specificity ELISA, fold over background” value turned out to be 1.3 fold over background and the “specificity ELISA, percent binding relative to Acro S1” value turned out to be 5.2%.
For B3, the “specificity ELISA, fold over background” value was found to be 1.4 fold over background and the “specificity ELISA, percent binding relative to Acro S1” value stood at 12.3%.
Take B4: the “specificity ELISA, fold over background” value was found to be 1.6 fold over background and the “specificity ELISA, percent binding relative to Acro S1” value was 32%.
As for B5, the “specificity ELISA, fold over background” value stood at 1.4 fold over background and the “specificity ELISA, percent binding relative to Acro S1” value came to 7%.
As to B6, the “specificity ELISA, fold over background” value worked out at 1 fold over background and the “specificity ELISA, percent binding relative to Acro S1” value came out at 74.7%.
On to B7, for which the “specificity ELISA, fold over background” value was found to be 0.9 fold over background and the “specificity ELISA, percent binding relative to Acro S1” value turned out to be 11.1%.

A further experiment concerns the target T3, COVID S1 RBD Fc fusion (Antigen 1) (SARS-CoV-2, UniProt P0DTC2 319-541).
T3 construct: domain: RBD
The experiment can be described thus: phage ELISA.
For B1, the “specificity ELISA, fold over background” value turned out to be 1.5 fold over background and the “specificity ELISA, percent binding relative to Acro S1” value worked out at 128%.
With B2, the “specificity ELISA, fold over background” value was found to be 20.1 fold over background and the “specificity ELISA, percent binding relative to Acro S1” value was 79.8%.
Turning to B3, the “specificity ELISA, fold over background” value was 2 fold over background and the “specificity ELISA, percent binding relative to Acro S1” value amounted to 17.7%.
B4: the “specificity ELISA, fold over background” value worked out at 3.6 fold over background and the “specificity ELISA, percent binding relative to Acro S1” value was found to be 70.9%.
The like results for B5 were, in that order, 14.8 fold over background and 75.7%.
With B6, the “specificity ELISA, fold over background” value is 1.1 fold over background and the “specificity ELISA, percent binding relative to Acro S1” value was found to be 76.8%.
Consider B7, for which the “specificity ELISA, fold over background” value worked out at 5.5 fold over background and the “specificity ELISA, percent binding relative to Acro S1” value was determined as 68.9%.

In a further experiment the target is S1-Fc (SARS-CoV-2, UniProt P0DTC2 16-685). The experiment can be described thus: phage ELISA.
Turning to B1, the “specificity ELISA, fold over background” value was 0.9 fold over background and the “specificity ELISA, percent binding relative to Acro S1” value came out at 82.8%.
The corresponding values for B3 are 5.4 fold over background and 46.7%.
As to B4, the “specificity ELISA, fold over background” value worked out at 1.6 fold over background and the “specificity ELISA, percent binding relative to Acro S1” value amounted to 31.1%.
In the case of B6, the “specificity ELISA, fold over background” value was 1.3 fold over background and the “specificity ELISA, percent binding relative to Acro S1” value was determined as 98%.

In a further experiment the target is COVID S1 RBM Fc fusion (Antigen 2) (SARS-CoV-2, UniProt P0DTC2 437-508). In words: phage ELISA.
For the molecule B8, the “specificity ELISA, fold over background” value stood at 0.9 fold over background and the “specificity ELISA, percent binding relative to Acro S1” value was determined as 3%.
